According to publication PMC4381951, “Musashi proteins are post-transcriptional regulators of the epithelial-luminal cell state”:

Experiments:
Conditions in all cases: protein: recombinant; tags: SBP tag (N-terminal); GST removed by PreScission
MSI1 (Musashi1) [1] = biological target: T1, MSI1 (Musashi1) (UniProt Q61474 1-362); experiment: EMSA; mean of 2 gel shifts; EMSA buffer not given; RBNS: 25 mM Tris pH 7.5, 150 mM KCl, 3 mM MgCl2, 0.01% Tween, 1 mg/ml BSA, 1 mM DTT, 30 ug/ml poly I/C, room temperature
MSI1 (Musashi1) [2] = biological target: T1, MSI1 (Musashi1); experiment: EMSA; EMSA buffer not given; RBNS: 25 mM Tris pH 7.5, 150 mM KCl, 3 mM MgCl2, 0.01% Tween, 1 mg/ml BSA, 1 mM DTT, 30 ug/ml poly I/C, room temperature
MSI1 (Musashi1) [3] = biological target: T1, MSI1 (Musashi1); experiment: EMSA; no binding detected, Kd cannot be estimated; EMSA buffer not given; RBNS: 25 mM Tris pH 7.5, 150 mM KCl, 3 mM MgCl2, 0.01% Tween, 1 mg/ml BSA, 1 mM DTT, 30 ug/ml poly I/C, room temperature

T1 sequence (Q61474 whole entry): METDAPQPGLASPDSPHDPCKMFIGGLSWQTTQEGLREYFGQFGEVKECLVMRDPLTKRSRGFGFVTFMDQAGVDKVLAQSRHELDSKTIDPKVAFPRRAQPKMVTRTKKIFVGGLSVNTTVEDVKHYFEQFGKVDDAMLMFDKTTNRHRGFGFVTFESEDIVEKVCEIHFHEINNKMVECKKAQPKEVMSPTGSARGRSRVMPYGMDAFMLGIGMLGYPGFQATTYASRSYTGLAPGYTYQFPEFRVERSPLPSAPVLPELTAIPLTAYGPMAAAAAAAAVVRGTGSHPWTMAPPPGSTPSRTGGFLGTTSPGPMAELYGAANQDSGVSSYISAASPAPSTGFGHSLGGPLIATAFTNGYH

Binder: UCAAAGUAGAAUUUUUGUAUAGUUAUGUAAAUAAU (ssRNA) [Jag1 3' UTR region 2]
- Kd (MSI1 (Musashi1) [1]): 9 nM

Binder: UCAAAGUCCAAUUUUUGUAUCCUUAUGUAAAUAAU (ssRNA) [Jag1 3' UTR region 2 mutant]
- Kd (MSI1 (Musashi1) [2]): 649 nM

Binder: UGUCCAGUUAGAUCACUGUUUAGAU (ssRNA) [Jag1 3' UTR region 1]
- Kd (MSI1 (Musashi1) [1]): 15 nM

Binder: UGUCCAGUUCCAUCACUGUUUCCAU (ssRNA) [Jag1 3' UTR region 1 mutant]
- binding result (MSI1 (Musashi1) [3]): no binding
